Assay results published in patent US20100209436.

T1: human OPA1 splice variant 7
T1 chain: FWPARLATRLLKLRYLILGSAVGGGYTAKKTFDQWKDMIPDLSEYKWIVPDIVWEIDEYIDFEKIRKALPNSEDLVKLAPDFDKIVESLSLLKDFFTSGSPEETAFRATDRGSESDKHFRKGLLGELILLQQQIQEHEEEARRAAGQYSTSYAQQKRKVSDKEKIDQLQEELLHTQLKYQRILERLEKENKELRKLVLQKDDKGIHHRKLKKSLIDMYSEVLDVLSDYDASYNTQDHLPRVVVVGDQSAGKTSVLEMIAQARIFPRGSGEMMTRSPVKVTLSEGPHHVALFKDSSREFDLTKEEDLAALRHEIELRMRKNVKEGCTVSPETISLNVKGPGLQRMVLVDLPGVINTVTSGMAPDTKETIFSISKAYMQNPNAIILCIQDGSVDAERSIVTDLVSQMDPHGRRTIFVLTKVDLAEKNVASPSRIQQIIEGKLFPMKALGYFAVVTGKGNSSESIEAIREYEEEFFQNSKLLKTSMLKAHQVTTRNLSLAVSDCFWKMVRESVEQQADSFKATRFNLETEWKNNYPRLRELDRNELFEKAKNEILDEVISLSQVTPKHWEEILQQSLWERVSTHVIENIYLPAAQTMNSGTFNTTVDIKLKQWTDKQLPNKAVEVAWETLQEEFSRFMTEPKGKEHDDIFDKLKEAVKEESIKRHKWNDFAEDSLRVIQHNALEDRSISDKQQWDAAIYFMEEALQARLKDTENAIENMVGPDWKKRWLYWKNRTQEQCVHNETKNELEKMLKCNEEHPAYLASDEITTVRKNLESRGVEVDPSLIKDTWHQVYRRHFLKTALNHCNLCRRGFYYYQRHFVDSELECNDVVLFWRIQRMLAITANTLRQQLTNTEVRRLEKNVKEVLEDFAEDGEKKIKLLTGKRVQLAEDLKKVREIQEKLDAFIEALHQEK

T2: human OPA1 splice variant 8 (A210V polymorphism)
T2 chain: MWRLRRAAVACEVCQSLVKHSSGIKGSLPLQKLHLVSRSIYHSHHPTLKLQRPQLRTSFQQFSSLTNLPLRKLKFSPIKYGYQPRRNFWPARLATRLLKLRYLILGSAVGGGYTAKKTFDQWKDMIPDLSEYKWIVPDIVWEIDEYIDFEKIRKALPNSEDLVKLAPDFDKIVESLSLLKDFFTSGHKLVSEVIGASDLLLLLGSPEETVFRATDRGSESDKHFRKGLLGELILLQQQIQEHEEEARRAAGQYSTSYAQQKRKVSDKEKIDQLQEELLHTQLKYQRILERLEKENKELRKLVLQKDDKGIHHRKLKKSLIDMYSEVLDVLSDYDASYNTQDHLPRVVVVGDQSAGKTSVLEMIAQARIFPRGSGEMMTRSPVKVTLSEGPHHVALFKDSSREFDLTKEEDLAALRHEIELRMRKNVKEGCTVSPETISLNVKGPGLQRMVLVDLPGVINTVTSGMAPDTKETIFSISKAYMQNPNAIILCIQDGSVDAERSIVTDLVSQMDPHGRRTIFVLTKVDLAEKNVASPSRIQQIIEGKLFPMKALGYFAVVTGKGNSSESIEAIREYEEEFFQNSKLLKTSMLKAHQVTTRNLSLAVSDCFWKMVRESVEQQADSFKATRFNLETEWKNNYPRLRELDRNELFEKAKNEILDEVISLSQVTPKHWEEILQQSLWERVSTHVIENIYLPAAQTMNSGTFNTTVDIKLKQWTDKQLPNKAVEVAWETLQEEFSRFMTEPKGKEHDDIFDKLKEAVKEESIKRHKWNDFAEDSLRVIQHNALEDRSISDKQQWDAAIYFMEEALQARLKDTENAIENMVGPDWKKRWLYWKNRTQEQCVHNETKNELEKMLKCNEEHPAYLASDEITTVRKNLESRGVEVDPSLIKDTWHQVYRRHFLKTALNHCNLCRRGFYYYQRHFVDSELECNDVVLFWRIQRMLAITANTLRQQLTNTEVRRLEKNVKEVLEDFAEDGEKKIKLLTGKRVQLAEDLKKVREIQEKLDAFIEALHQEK

T3: human OPA1 splice variant 4
T3 chain: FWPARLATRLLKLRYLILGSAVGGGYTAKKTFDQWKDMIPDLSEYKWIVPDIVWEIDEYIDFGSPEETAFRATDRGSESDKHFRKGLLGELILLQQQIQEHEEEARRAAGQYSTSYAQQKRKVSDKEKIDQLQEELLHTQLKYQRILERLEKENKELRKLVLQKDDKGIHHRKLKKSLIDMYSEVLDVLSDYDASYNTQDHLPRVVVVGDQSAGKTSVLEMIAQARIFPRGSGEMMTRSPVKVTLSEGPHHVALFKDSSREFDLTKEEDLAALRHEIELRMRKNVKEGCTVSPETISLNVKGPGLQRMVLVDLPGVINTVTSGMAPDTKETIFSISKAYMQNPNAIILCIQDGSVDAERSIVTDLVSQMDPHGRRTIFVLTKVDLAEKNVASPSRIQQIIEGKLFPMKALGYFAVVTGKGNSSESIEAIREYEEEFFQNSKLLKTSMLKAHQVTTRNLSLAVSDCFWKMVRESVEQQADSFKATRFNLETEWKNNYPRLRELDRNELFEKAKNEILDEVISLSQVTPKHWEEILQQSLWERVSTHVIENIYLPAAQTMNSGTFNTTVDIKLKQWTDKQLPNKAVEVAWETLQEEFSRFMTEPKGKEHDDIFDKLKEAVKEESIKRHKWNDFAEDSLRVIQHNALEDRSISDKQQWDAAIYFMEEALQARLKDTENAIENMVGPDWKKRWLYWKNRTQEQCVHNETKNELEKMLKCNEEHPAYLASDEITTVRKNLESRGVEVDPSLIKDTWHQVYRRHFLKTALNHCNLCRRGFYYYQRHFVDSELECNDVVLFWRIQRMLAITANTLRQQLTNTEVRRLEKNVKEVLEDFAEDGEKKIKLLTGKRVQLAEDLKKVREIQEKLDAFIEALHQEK

B1: yeast m-AAA protease (subunits Yta10 and Yta12) (protein)
chain 1: MMMWQRYARGAPRSLTSLSFGKASRISTVKPVLRSRMPVHQRLQTLSGLATRNTIHRSTQIRSFHISWTRLNENRPNKEGEGKNNGNKDNNSNKEDGKDKRNEFGSLSEYFRSKEFANTMFLTIGFTIIFTLLTPSSNNSGDDSNRVLTFQDFKTKYLEKGLVSKIYVVNKFLVEAELVNTKQVVSFTIGSVDIFEEQMDQIQDLLNIPPRDRIPIKYIERSSPFTFLFPFLPTIILLGGLYFITRKINSSPPNANGGGGGGLGGMFNVGKSRAKLFNKETDIKISFKNVAGCDEAKQEIMEFVHFLKNPGKYTKLGAKIPRGAILSGPPGTGKTLLAKATAGEANVPFLSVSGSEFVEMFVGVGASRVRDLFTQARSMAPSIIFIDEIDAIGKERGKGGALGGANDEREATLNQLLVEMDGFTTSDQVVVLAGTNRPDVLDNALMRPGRFDRHIQIDSPDVNGRQQIYLVHLKRLNLDPLLTDDMNNLSGKLATLTPGFTGADIANACNEAALIAARHNDPYITIHHFEQAIERVIAGLEKKTRVLSKEEKRSVAYHEAGHAVCGWFLKYADPLLKVSIIPRGQGALGYAQYLPPDQYLISEEQFRHRMIMALGGRVSEELHFPSVTSGAHDDFKKVTQMANAMVTSLGMSPKIGYLSFDQNDGNFKVNKPFSNKTARTIDLEVKSIVDDAHRACTELLTKNLDKVDLVAKELLRKEAITREDMIRLLGPRPFKERNEAFEKYLDPKSNTEPPEAPAATN
chain 2: MLLLSWSRIATKVVRRPVRFRSYYGLTHIKSLHTQYRLLNRLQENKSGNKNEDNNEDAKLNKEIPTDEEVEAIRKQVEKYIEQTKNNTIPANWKEQKRKIDESIRRLEDAVLKQESNRIQEERKEKEEENGPSKAKSNRTKEQGYFEGNNSRNIPPPPPPPPPKPPLNDPSNPVSKNVNLFQIGLTFFLLSFLLDLLNSLEEQSEITWQDFREKLLAKGYVAKLIVVNKSMVKVMLNDNGKNQADNYGRNFYYFTIGSIDSFEHKLQKAQDELDIDKDFRIPVLYVQEGNWAKAMFQILPTVLMIAGIIWLTRRSAQAAGGSRGGIFGLSRSKAKKFNTETDVKIKFKDVAGCDEAKEEIMEFVSFLKEPSRYEKMGAKIPRGAILSGPPGTGKTLLAKATAGEAGVPFYFVSGSEFVEMFVGVGAARVRDLFKTARENAPSIVFIDEIDAIGKARQKGNFSGANDERENTLNQMLVEMDGFTPADHVVVLAGTNRPDILDKALLRPGRFDRHINIDKPELEGRKAIFAVHLHHLKLAGEIFDLKNRLAALTPGFSGADIANVCNEAALIAARSDEDAVKLNHFEQAIERVIGGVERKSKLLSPEEKKVVAYHEAGHAVCGWYLKYADPLLKVSIIPRGQGALGYAQYLPGDIFLLTEQQLKDRMTMSLGGRVSEELHFPSVTSGASDDFKKVTSMATAMVTELGMSDKIGWVNYQKRDDSDLTKPFSDETGDIIDSEVYRIVQECHDRCTKLLKEKAEDVEKIAQVLLKKEVLTREDMIDLLGKRPFPERNDAFDKYLNDYETEKIRKEEEKNEKRNEPKPSTN
B2: homo-oligomeric murine Afg3l1 complex (Yta10 (1-61)-Afg3l1 (25-789)-Myc) (protein)
chain: MMMWQRYARGAPRSLTSLSFGKASRISTVKPVLRSRMPVHQRLQTLSGLATRNTIHRSTQIGGCAGSGGTVWSSVRACGIALQGHLGRCSQQLALQGKLTSFSPRLYSKPPRGFEKFFKNKKNRKSASPGNSVPPKKEPKNAGPGGDGGNRGGKGDDFPWWKRMQKGEFPWDDKDFRSLAVLGAGVAAGFLYFYFRDPGKEITWKHFVQYYLARGLVDRLEVVNKQFVRVIPVPGTTSERFVWFNIGSVDTFERNLESAQWELGIEPTNQAAVVYTTESDGSFLRSLVPTLVLVSILLYAMRRGPMGTGRGGRGGGLFSVGETTAKILKNNIDVRFADVAGCEEAKLEIMEFVNFLKNPKQYQDLGAKIPKGAMLTGPPGTGKTLLAKATAGEANVPFITVNGSEFLEMFVGVGPARVRDMFAMARKHAPCILFIDEIDAIGRKRGRGHLGGQSEQENTLNQMLVEMDGFNSSTNVVVLAGTNRPDILDPALTRPGRFDRQIYIGPPDIKGRSSIFKVHLRPLKLDGSLSKDALSRKLAALTPGFTGADISNVCNEAALIAARHLSPSVQERHFEQAIERVIGGLEKKTQVLQPSEKTTVAYHEAGHAVVGWFLEHADPLLKVSIIPRGKGLGYAQYLPREQFLYTREQLFDRMCMMLGGRVAEQLFFGQITTGAQDDLRKVTQSAYAQIVQFGMSEKLGQVSFDFPRQGETMVEKPYSEATAQLIDEEVRCLVRSAYNRTLELLTQCREQVEKVGRRLLEKEVLEKADMIELLGPRPFAEKSTYEEFVEGTGSLEEDTSLPEGLKDWNKGREEGGTERGLQESPV
B3: murine paraplegin expressed alone (Yta10 (1-61)-paraplegin (44-781)) (protein)
chain: MMMWQRYARGAPRSLTSLSFGKASRISTVKPVLRSRMPVHQRLQTLSGLATRNTIHRSTQIAARGTPVGPAAAGGHAPQSLLLRILTPSFEGISGLLLKQHIVPNAVRLWPLSGSTLYFNTSRMKQKNKDNDKPKGKTPEDDEEEKRRKEREDQMYRERLRTLFIIALVMSLLNSLSTSGGSISWADFVNEMLAKGEVQRVQVVPESDVVEVYLHPGAVVFGRPRLALMYRMQVANIDKFEEKLRAAEDELNIESKDRIPVSYKRTGFFGNALYALGMTAVGLAILWYVFRLAGMTGREGGFSAFNQLKMARFTIVDGKTGKGVSFQDVAGMHEAKLEVREFVDYLKSPERFLQLGAKVPKGALLLGPPGCGKTLLAKAVATEAQVPFLAMAGPEFVEVIGGLGAARVRSLFKEARARAPCIVYIDEIDAVGKKRSTSMSGFSNTEEEQTLNQLLVEMDGMGTTDHVIVLASTNRADVLDNALMRPGRLDRHVFIDLPTLQERREIFEQHLKGLKLTQPSSFYSQRLAELTPGFSGADIANICNEAALHAAREGHTSVHTFNFEYAVERVIAGTAKKSKILSKEEQRVVAFHESGHALVGWLLEHTEAVMKVSIAPRTNAALGFSQMLPRDQYLFTKEQLFERMCMALGGRAAEAISFSRVTSGAQDDLRKVTRIAYSMVKQFGMAPSIGPVSFPEAQEGLMGIGRRPFSQGLQQMMDHEAKLLVAKAYRHTEKVLLDNLDKLQALANALLEKEVINYEDIEALIGPPPHGPKKMIAPQKWIDAEKERQASGEEEAPAP

Legend:
[1] = molecular target: T1, human OPA1 splice variant 7
[2] = molecular target: T2, human OPA1 splice variant 8 (A210V …)
[3] = molecular target: T3, human OPA1 splice variant 4

Row | Protein | OPA1 processing (western blot, yeast deletion strains) [1] | OPA1 processing (western blot, Δyta10Δyta12 yeast) [1] | OPA1 processing (western blot, Δyta10Δyta12 yeast) [2] | OPA1 processing (western blot, Δyta10Δyta12 yeast) [3]
1 | B1 | small isoforms did not accumulate in cells lacking the yeast m-AAA protease subunits Yta10 or Yta12 | – | – | –
2 | B2 | – | expression of each of the murine subunits, Afg3l2 or Afg3l1, in Δyta10Δyta12 cells promoted OPA1 processing; the isoform S4 predominantly accumulated in the presence of Afg3l1 | Afg3l1 and Afg3l2 complexes mediated processing of OPA1 splice variants 4 and 8 in a similar manner | Afg3l1 and Afg3l2 complexes mediated processing of OPA1 splice variants 4 and 8 in a similar manner
3 | B3 | – | Cleavage of OPA1 upon expression of paraplegin alone was not observed | – | –
